Assay results reported in publication PMC9253516.
pKd: −log10 of the molar value. Values belong to the substance of their own block, whether it stands above or below them.

Key:
Sgo1_(1–130) (human) = Sgo1_(1–130) (human) (UniProt Q5FBB7); assay: ITC; Survivin or CPC (monomer concentration) injected into Sgo1 constructs, 20°C; 50 mM Hepes pH 8, 150 mM NaCl, 5% glycerol, 1 mM TCEP; standard 1:1 binding model
Sgo1_(1–155) (human) = Sgo1_(1–155) (human) (UniProt Q5FBB7); assay: as above
Sgo1_(1–415) (human) [1] = molecular target: Sgo1_(1–415) (human) (UniProt Q5FBB7); assay: mass photometry; samples cross-linked with 0.01% glutaraldehyde 5 min at 4°C, quenched with Tris; 20 nM measured in 25 mM Hepes pH 8, 250 mM NaCl, 2 mM DTT
Sgo1_(1–415 4A) (human) = Sgo1_(1–415 4A) (human) (UniProt Q5FBB7); assay: ITC; 100 μM CPC injected into 10 μM Sgo1 1-415 or 1-415 4A, 20°C; 50 mM Hepes pH 8, 250 mM NaCl, 5% glycerol, 1 mM TCEP, 0.005% Tween; standard 1:1 binding model
Sgo1_(1–415) (human) [2] = molecular target: Sgo1_(1–415) (human) (UniProt Q5FBB7); assay: as above
Sgo1_(1–415) (human) [3] = molecular target: Sgo1_(1–415) (human) (UniProt Q5FBB7); assay: ITC; Survivin or CPC (monomer concentration) injected into Sgo1 constructs, 20°C; 50 mM Hepes pH 8, 150 mM NaCl, 5% glycerol, 1 mM TCEP; standard 1:1 binding model
Aurora B (endogenous) = Aurora B (endogenous) (UniProt Q96GD4); assay: LacO-LacI tethering assay, immunofluorescence in U-2 OS-LacO Haspin CM cells; conditions: n = 17 (parent), red bar = mean, parent: est. 3.5, read off a plot
Borealin (endogenous) = Borealin (endogenous) (UniProt Q53HL2); assay: as above; conditions: n = 22 (parent), red bar = mean, parent: est. 1.5, read off a plot

Sequence of Aurora B (endogenous) (Q96GD4 whole entry): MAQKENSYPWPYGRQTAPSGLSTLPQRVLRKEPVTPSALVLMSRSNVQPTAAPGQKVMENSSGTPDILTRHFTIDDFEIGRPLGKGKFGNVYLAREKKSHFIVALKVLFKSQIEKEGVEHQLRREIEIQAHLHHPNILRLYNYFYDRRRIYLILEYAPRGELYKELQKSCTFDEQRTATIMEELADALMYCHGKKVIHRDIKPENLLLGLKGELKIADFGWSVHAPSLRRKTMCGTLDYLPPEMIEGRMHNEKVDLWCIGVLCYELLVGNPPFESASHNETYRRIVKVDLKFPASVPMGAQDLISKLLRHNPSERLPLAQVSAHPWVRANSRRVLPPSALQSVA

Substance: CPC_(ISB10–221) (INCENP_(1–58), Survivin, Borealin_(10–221)) (from UniProt Q9NQS7 1-58; O15392 1-142; Q53HL2 10-221) (complex)
pKd (Sgo1_(1–130) (human)): 6.79

Substance: CPC_(ISB10–280 H80A) (from UniProt Q9NQS7 1-58; O15392 1-142; Q53HL2 10-280) (complex)
pKd (Sgo1_(1–155) (human)): 6.95

Substance: CPC_(ISB10–280 K62A) (from UniProt Q9NQS7 1-58; O15392 1-142; Q53HL2 10-280) (complex)
pKd (Sgo1_(1–155) (human)): 7.37

Substance: CPC_(ISB10–280) (INCENP_(1–58), Survivin full length, Borealin_(10–280)) (from UniProt Q9NQS7 1-58; O15392 1-142; Q53HL2 10-280) (complex)
stoichiometry N (Sgo1_(1–415) (human) [1]): 1 ratio (2:2)
pKd (Sgo1_(1–415 4A) (human)): 6.95
pKd (Sgo1_(1–415) (human) [2]): 6.82
pKd (Sgo1_(1–130) (human)): 7.24
pKd (Sgo1_(1–155) (human)): 7.15
pKd (Sgo1_(1–415) (human) [3]): 7.28
dH (Sgo1_(1–415) (human) [3]): -6.58 kcal/mol
stoichiometry N (Sgo1_(1–415) (human) [3]): 1

stoichiometry N (Sgo1_(1–415) (human) [1]): 2
Substance: Sgo1_(1–415) (from UniProt Q5FBB7 1-415) (domain or fragment)

response (Aurora B (endogenous); n = 14 (mutant)): 2.3 a.u.
response (Borealin (endogenous); n = 23 (mutant)): 0.6 a.u.
Substance: Sgo1_(1–527)-LacI-GFP Nmut

response (Aurora B (endogenous); n = 22 (mutant)): 0.4 a.u.
response (Borealin (endogenous); n = 22 (mutant)): 0.28 a.u.
Substance: Sgo1_(1–527)-LacI-GFP Nmut; V188A; S189A; V190A; R191A

response (Aurora B (endogenous); n = 19 (mutant)): 1.6 a.u.
Substance: Sgo1_(1–527)-LacI-GFP V188A; S189A; V190A; R191A

Substance: Survivin full length (from UniProt O15392 1-142) (natural protein)
pKd (Sgo1_(1–130) (human)): 6.59
pKd (Sgo1_(1–155) (human)): 6.62

Substance: Survivin_(1–116) (from UniProt O15392 1-116) (domain or fragment)
pKd (Sgo1_(1–155) (human)): 6.39
